Experimental data as given in article PMC11672753.

Sequence of S15-HDEL (human) (heavy, as listed by the source, chain 1 of 2): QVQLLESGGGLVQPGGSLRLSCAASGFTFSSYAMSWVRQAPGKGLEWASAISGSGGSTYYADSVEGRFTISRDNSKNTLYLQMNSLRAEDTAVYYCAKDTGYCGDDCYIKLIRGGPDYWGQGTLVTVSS
Sequence of S15-HDEL (human) (light, as listed by the source, chain 2 of 2): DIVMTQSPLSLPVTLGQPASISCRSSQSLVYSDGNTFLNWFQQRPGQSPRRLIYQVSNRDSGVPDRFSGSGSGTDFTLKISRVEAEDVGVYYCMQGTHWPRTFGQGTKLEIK
Sequence of S15-FX (human) (heavy, as listed by the source, chain 1 of 2): as the sequence (heavy, as listed by the source, chain 1 of 2) above
Sequence of S15-FX (human) (light, as listed by the source, chain 2 of 2): as the sequence (light, as listed by the source, chain 2 of 2) above

FcγRIIIa-dimer, biotinylated (from UniProt P08637 17-254) (receptor)
NK cell activation (CD107 and IFNγ expression) by antigen-bound antibody, against the WT plant antibody (S15-HDEL (human)): 3 fold | NK cell activation (CD107 and IFNγ expression) by antigen-bound antibody, against the WT plant antibody (S15-FX (human)): 3 fold
